The target in assay [1] is Cell-surface full length amyloid precursor protein (APP) on HEK293T cells transfected with wild type APP DNA (UniProt P05067). Put plainly: FMAT ABI8200, HEK293T cells transfected with wild type APP, mock subtracted; Experiment 1.
The target is the same in assay [2]. As to the kind of experiment: FMAT ABI8200, HEK293T cells transfected with wild type APP, mock subtracted; Experiment 2.

Cell-surface full length amyloid precursor protein (APP) on HEK293T cells transfected with wild type APP DNA, sequence (P05067 18-770): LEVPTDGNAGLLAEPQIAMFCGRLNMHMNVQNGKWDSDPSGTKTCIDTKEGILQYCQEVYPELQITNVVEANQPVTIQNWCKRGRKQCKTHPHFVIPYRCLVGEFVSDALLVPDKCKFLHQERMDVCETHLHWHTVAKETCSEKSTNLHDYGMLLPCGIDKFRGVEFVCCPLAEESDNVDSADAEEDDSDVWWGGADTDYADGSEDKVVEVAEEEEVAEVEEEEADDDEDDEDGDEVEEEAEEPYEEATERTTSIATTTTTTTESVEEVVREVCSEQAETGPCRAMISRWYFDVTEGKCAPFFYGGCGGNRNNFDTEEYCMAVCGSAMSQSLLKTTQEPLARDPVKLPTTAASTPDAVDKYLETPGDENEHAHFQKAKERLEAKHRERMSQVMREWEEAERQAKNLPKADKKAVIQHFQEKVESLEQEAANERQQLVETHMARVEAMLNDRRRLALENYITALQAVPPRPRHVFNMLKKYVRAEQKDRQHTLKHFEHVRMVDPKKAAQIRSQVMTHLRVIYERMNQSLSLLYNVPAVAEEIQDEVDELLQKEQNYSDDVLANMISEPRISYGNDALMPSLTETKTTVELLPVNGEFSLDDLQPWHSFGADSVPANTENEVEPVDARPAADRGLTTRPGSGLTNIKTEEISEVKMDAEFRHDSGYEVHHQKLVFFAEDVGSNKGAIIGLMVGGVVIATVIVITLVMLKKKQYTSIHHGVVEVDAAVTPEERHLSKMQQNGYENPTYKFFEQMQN

B1: Mouse monoclonal antibody 2E7 (antibody, mouse IgG2a, V domains shown)
VH: EVKLVESGGGLVQPGGSLKLSCAVSGFTFSDNGMAWVRQAPRKGPEWIAFISNLAYSIDYADTVTGRFTISRDNAKNTLYLEMSSLRSEDTAMYYCVSGTWFAYWGQGTLVTVSA
VL: DVVLTQTPLSLPVSLGDQASISCRVSQSLLHSNGYTYLHWYLQKPGQSPKLLIYKVSNRFSGVPDRFSGSGSGTDFTLKISRVEAEDLGVYFCSQTRHVPYTFGGGTKLEIK
On to B1, for which the % of LN27 binding in assay [1] worked out at 9.9%; in assay [2], 2.2%.

For the origin of these results see US20110064740A1.
